For 29 molecules, IC50 and EC50 results are on record in patent US20240116985A1, “STAPLED PEPTIDES AND METHODS THEREOF” (priority 2020, published 2024).

Starred links: 1 amine or outer side, 2 acyl side, 3 side chain; linkers in the order of their positions; H or OH if unused. Positions of bridges follow the written chain, without caps; N, C: chain ends. Non-standard residues stand in square brackets, D forms with d. Primed or numbered codes have the meaning given here. PyrS2″ = (S)-3-amino-1-((pent-4-en-1-yloxy)carbonyl)pyrrolidine-3-carboxylic acid (stapling residue), C=CCCCOC(=O)N1CC[C@@](N[*:1])(C(=O)[*:2])C1; B5(24) = 2-amino-2-(pent-4-en-1-yl)hept-6-enoic acid, 2,2-bis(4-pentenyl)glycine (stitching residue), C=CCCCC(CCCC=C)(N[*:1])C(=O)[*:2]; B5(4) = 2,2-bis(4-pentenyl)glycine = 2-amino-2-(pent-4-en-1-yl)hept-6-enoic acid (stitching residue), C=CCCCC(CCCC=C)(N[*:1])C(=O)[*:2]; B5(5) = 2,2-bis(4-pentenyl)glycine, 2-amino-2-(pent-4-en-1-yl)hept-6-enoic acid (stitching residue), C=CCCCC(CCCC=C)(N[*:1])C(=O)[*:2]; B5(8) = 2,2-bis(4-pentenyl)glycine (2-amino-2-(pent-4-en-1-yl)hept-6-enoic acid, stitching residue), C=CCCCC(CCCC=C)(N[*:1])C(=O)[*:2]; TfeGA = (S)-2-amino-3-((carboxymethyl)(2,2,2-trifluoroethyl)amino)propanoic acid, O=C([C@H](CN(CC(=O)[*:3])CC(F)(F)F)N[*:1])[*:2]; (EtSSpy)AspE = (S)-2-amino-4-oxo-4-(2-(pyridin-2-yldisulfaneyl)ethoxy)butanoic acid, O=C(C[C@H](N[*:1])C(=O)[*:2])OCCSSc1ccccn1; PyrS2 = (S)-3-amino-1-((pent-4-en-1-yloxy)carbonyl)pyrrolidine-3-carboxylic acid, C=CCCCOC(=O)N1CC[C@@](N[*:1])(C(=O)[*:2])C1; B5(22) = 2-amino-2-(pent-4-en-1-yl)hept-6-enoic acid (two alkene side chains), C=CCCCC(CCCC=C)(N[*:1])C(=O)[*:2]; AspSH = (S)-2-amino-4-mercapto-4-oxobutanoic acid, O=C(C[C@H](N[*:1])C(=O)[*:2])S[*:3]; B5 = 2-amino-2-(pent-4-en-1-yl)hept-6-enoic acid, C=CCCCC(CCCC=C)(N[*:1])C(=O)[*:2]; Trp(1-Me) = Cn1cc(C[C@H](N)C(=O)O)c2ccccc21; Phe(2-Cl) = N[C@@H](Cc1ccccc1Cl)C(=O)O; Bta = N[C@@H](Cc1csc2ccccc12)C(=O)O; αAllylPro = C=CC[C@@]1(C(=O)O)CCCN1; tBuAla = CC(C)(C)C[C@H](N)C(=O)O; 3Thi = N[C@@H](Cc1ccsc1)C(=O)O; Cha = N[C@@H](CC1CCCCC1)C(=O)O; S8 = C=CCCCCCC[C@](C)(N)C(=O)O; hLeu = CC(C)CC[C@H](N)C(=O)O; hSer = N[C@@H](CCO)C(=O)O; Abu = CC[C@H](N)C(=O)O

Sequences and labels used below:
B1: I-1137 (peptide)
peptide: Ac-[αAllylPro]D[Cha][B5(4)]DDAAFS[PyrS2″][Phe(2-Cl)][Bta][hSer]-NH2
modifications: staple 1-4, 4-11
B2: I-697 (peptide)
peptide: Ac-[αAllylPro]D[tBuAla][B5(8)]DEAAFN[PyrS2″][3Thi][Bta]H-NH2
modifications: staple 1-4, 4-11
B3: I-693 (peptide)
peptide: Ac-[αAllylPro]D[tBuAla][B5(4)]DEAAFN[PyrS2″]F[Bta]H-NH2
modifications: staple 1-4, 4-11; not fully specified
B4: I-685 (peptide)
peptide: Ac-[αAllylPro]D[tBuAla][B5(4)]DEAAFN[PyrS2″]F[Bta]Q-NH2
modifications: staple 1-4, 4-11; not fully specified
B5: I-692 (peptide)
peptide: Ac-[αAllylPro]D[tBuAla][B5(4)]DEAAFN[PyrS2″]F[Bta]H-NH2
modifications: staple 1-4, 4-11; not fully specified
B6: I-690 (peptide)
peptide: Ac-[αAllylPro]D[tBuAla][B5(4)]DEAAFN[PyrS2″][3Thi][Bta]Q-NH2
modifications: staple 1-4, 4-11; not fully specified
B7: I-683 (peptide)
peptide: Ac-[αAllylPro]D[tBuAla][B5(4)]DEAAFN[S8][3Thi][Bta]Q-NH2
modifications: staple 1-4, 4-11; not fully specified
B8: I-701 (peptide)
peptide: Ac-[αAllylPro]DI[B5(8)]D[TfeGA]AAFN[S8][3Thi][Bta]Q-NH2
modifications: staple 1-4, 4-11
B9: I-691 (peptide)
peptide: Ac-[αAllylPro]D[tBuAla][B5(4)]DEAAFN[PyrS2″][3Thi][Bta]Q-NH2
modifications: staple 1-4, 4-11; not fully specified
B10: I-684 (peptide)
peptide: Ac-[αAllylPro]D[tBuAla][B5(4)]DEAAFN[PyrS2″]F[Bta]Q-NH2
modifications: staple 1-4, 4-11; not fully specified
B11: I-583 (peptide)
peptide: Ac-[αAllylPro]D[hLeu][B5(5)]DDAAFN[S8]F[Bta]H-NH2
modifications: staple 1-4, 4-11; also: staple isomer, earlier eluting HPLC peak
B12: I-584 (peptide)
peptide: Ac-[αAllylPro]D[hLeu][B5(5)]DDAAFN[S8]F[Bta]H-NH2
modifications: staple 1-4, 4-11
B13: I-575 (peptide)
peptide: Ac-[αAllylPro]D[Abu][B5]DDAAFN[S8]F[Bta]H-NH2
modifications: staple 1-4, 4-11
B14: I-569 (peptide)
peptide: Ac-[αAllylPro]D[Abu][B5(4)]DEAAFQ[S8]F[Bta]Q-NH2
modifications: staple 1-4, 4-11
B15: I-570 (peptide)
peptide: Ac-[αAllylPro]D[Abu][B5(4)]DEAAFQ[S8]F[Bta]H-NH2
modifications: staple 1-4, 4-11
B16: I-568 (peptide)
peptide: Ac-[αAllylPro]D[Abu][B5(4)]DEAAFQ[S8]F[Bta]Q-NH2
modifications: staple 1-4, 4-11
B17: I-1433 (peptide)
peptide: Ac-[αAllylPro]D[tBuAla][B5(22)]DDAAFL[PyrS2][3Thi][Trp(1-Me)]Q-NH2
modifications: staple 1-4, 4-11
B18: I-1432 (peptide)
peptide: Ac-[αAllylPro]D[tBuAla][B5(4)]DDAAFL[PyrS2][3Thi]WS-NH2
modifications: staple 1-4, 4-11
B19: I-1434 (peptide)
peptide: Ac-[αAllylPro]D[tBuAla][B5(22)]DDAAFL[PyrS2][3Thi][Trp(1-Me)]S-NH2
modifications: staple 1-4, 4-11
B20: I-1745 (peptide)
peptide: Ac-[αAllylPro]D[tBuAla][B5(4)]NTAAFN[PyrS2″][3Thi][Bta]T-NH2
modifications: staple 1-4, 4-11
B21: I-1742 (peptide)
peptide: Ac-[αAllylPro]D[tBuAla][B5(4)]NTAAFN[PyrS2″][3Thi][Bta]-NH2
modifications: staple 1-4, 4-11
B22: I-1743 (peptide)
peptide: Ac-[αAllylPro]D[tBuAla][B5(4)]NTAAFN[PyrS2″][3Thi][Bta]R-NH2
modifications: staple 1-4, 4-11
B23: I-1744 (peptide)
peptide: Ac-[αAllylPro]D[tBuAla][B5(4)]NTAAFN[PyrS2″][3Thi][Bta]F-NH2
modifications: staple 1-4, 4-11
B24: I-1746 (peptide)
peptide: Ac-[αAllylPro]D[tBuAla][B5(4)]NTAAFN[PyrS2″][3Thi][Bta]N-NH2
modifications: staple 1-4, 4-11
B25: I-1722 (peptide)
peptide: Ac-[αAllylPro][AspSH][tBuAla][B5]DDAAFN[PyrS2][Phe(2-Cl)][Bta]Q-NH2
modifications: staple 1-4, 4-11; not fully specified
B26: I-1723 (peptide)
peptide: Ac-[αAllylPro][(EtSSpy)AspE][tBuAla][B5]DDAAFN[PyrS2][Phe(2-Cl)][Bta]Q-NH2
modifications: staple 1-4, 4-11; also: earlier-eluting isomer
B27: I-1741 (peptide)
peptide: Ac-[αAllylPro]D[tBuAla][B5(4)]NTAAFW[PyrS2″][3Thi][Bta]Q-NH2
modifications: staple 1-4, 4-11
B28: I-1747 (peptide)
peptide: Ac-[αAllylPro]D[tBuAla][B5(5)]D[TfeGA]AAFL[PyrS2″][3Thi][Bta]L-NH2
modifications: staple 1-4, 4-11
B29: I-1724 (peptide)
peptide: Ac-[αAllylPro][(EtSSpy)AspE][tBuAla][B5]DDAAFN[PyrS2][Phe(2-Cl)][Bta]Q-NH2
modifications: staple 1-4, 4-11; not fully specified

Chain of beta-catenin (Homo sapiens (Human)) (P35222 whole entry): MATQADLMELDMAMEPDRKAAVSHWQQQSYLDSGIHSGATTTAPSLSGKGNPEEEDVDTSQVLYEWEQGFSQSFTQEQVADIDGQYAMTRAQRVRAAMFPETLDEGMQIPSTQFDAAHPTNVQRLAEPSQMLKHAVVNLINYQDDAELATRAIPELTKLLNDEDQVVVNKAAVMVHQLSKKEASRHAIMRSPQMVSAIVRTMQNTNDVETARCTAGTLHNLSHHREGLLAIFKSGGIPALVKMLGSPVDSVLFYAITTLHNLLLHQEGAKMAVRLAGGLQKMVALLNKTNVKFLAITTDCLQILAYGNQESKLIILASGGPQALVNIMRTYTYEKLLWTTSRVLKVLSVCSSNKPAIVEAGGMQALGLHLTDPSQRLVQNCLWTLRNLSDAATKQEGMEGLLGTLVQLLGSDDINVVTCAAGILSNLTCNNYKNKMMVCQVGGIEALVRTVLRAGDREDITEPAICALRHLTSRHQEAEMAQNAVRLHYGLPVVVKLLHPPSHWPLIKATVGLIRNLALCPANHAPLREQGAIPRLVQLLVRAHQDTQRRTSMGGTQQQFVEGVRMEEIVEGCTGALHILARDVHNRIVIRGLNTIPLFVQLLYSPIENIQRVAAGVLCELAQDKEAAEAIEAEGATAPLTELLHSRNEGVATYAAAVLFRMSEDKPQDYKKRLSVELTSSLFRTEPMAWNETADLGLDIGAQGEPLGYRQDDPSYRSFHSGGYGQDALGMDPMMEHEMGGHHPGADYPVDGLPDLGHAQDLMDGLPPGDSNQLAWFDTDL

One test addresses Bcat-Halo (UniProt P35222). Put plainly: NanoBRET Abs IC50 in HEK293 cells; competitor TCF4-Luc on Bcat-Halo.
B1 returned an IC50 of 12000 nM.

The target in another test is Bcat-Halo (UniProt P35222). Put plainly: NanoBRET in HEK293 cells (Bcat-Halo / TCF4-Luc), absolute IC50; competitor: TCF4-Luc.
Chain of Bcat-Halo (P35222 whole entry): as above
For the molecule B2, the IC50 worked out at 14700 nM.
The molecule B3 displayed a concentration for half-maximal inhibition (IC50) of 28500 nM.
Same read-out and setting: then B4, with 19400 nM; and B5, with 25600 nM.
On the same count and under the same terms, the same measure for B6: 17800 nM.
Consider B7, for which the IC50 is 6700 nM.
On the same count and under the same terms, the same measure for B8: 18100 nM; for B9: 17000 nM.
B10 yielded an IC50 of 14300 nM.

The target in the next test is full-length beta-Catenin (Uniprot ID P35222) (Homo sapiens (Human)) (UniProt P35222). Put plainly: fluorescence polarization competition vs 5FAM-TCF4(10-53) on full-length beta-catenin. For orientation: Fluorescence polarisation rises when a labelled molecule tumbles more slowly, as on binding a larger partner.
Target sequence in this assay (P35222 2-781 limits assumed): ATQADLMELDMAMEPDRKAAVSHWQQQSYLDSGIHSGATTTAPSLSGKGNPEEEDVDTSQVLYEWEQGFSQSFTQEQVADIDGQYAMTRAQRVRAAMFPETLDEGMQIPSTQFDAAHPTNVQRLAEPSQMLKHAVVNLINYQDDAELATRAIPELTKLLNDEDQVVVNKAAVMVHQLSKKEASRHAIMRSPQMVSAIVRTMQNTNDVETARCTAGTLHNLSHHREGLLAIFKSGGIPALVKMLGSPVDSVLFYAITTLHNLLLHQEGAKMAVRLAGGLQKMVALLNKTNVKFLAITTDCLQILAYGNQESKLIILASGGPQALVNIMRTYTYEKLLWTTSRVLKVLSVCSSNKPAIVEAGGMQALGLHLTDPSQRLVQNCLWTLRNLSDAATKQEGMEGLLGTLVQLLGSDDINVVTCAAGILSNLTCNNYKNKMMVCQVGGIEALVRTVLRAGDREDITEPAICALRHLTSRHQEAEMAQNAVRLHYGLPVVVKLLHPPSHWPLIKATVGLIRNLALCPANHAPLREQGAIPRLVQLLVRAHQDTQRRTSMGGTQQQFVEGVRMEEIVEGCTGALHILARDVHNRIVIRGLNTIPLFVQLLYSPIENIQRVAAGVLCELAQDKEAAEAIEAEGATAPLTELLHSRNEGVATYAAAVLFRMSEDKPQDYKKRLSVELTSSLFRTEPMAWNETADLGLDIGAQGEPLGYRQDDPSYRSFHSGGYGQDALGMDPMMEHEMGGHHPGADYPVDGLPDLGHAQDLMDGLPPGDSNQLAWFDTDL
As for B1, the IC50 is 8 nM.

The target is the same in another test. The test is described as follows: fluorescence polarization competition, 5FAM-TCF4 10-53 probe on full-length beta-catenin.
Target sequence in this assay (P35222 2-781 limits assumed): as above
The molecule B1 came in with a concentration giving a half-maximal response (EC50) of 8 nM.

Another test shares this target. Put plainly: fluorescence polarization competition; full-length beta-catenin, competitor 5FAM-TCF4(10-53) probe.
Target sequence in this assay (P35222 whole entry, one chain of several): as the sequence (P35222 whole entry) above
For the molecule B11, the EC50 was determined as 69 nM.
The molecule B12 had a 50% effective concentration (EC50) of 33 nM.
Molecule B13 yielded an EC50 of 21 nM.

For the next test the target is unchanged. Put plainly: competition fluorescence polarization; full-length beta-catenin, 5FAM-TCF4(10-53) probe as competitor.
Target sequence in this assay (P35222 whole entry, one chain of several): as the sequence (P35222 whole entry) above
In turn, B11 gave an IC50 of 69 nM.
Still for that read-out and setting: then B14, with 42 nM; and B15, with 56 nM; and B12, with 33 nM.
Still for that read-out and setting: the same measure for B16: 73 nM; for B13: 21 nM.

A further test shares this target. Put plainly: fluorescence polarization competition; 5FAM-TCF4(10-53) probe displaced from full-length beta-catenin.
Target sequence in this assay (P35222 2-781 limits assumed): as the sequence (P35222 2-781 limits assumed) above
In turn, B17 displayed an IC50 of 71 nM.
The same measure, in the same setting: then B18, with 27 nM; and B19, with 83 nM.

A further test has the same target. Put plainly: fluorescence polarization competition; displacement of 5FAM-TCF4(10-53) from full-length beta-catenin.
Target sequence in this assay (P35222 whole entry, one chain of several): as the sequence (P35222 whole entry) above
B14 came in with an EC50 of 42 nM.
The same measure, in the same setting: then B15, with 56 nM; and B16, with 73 nM.

The next test has the same target. The test is described as follows: fluorescence polarization competition; full-length beta-catenin; competitor displaced: 5FAM-TCF4 10-53.
Target sequence in this assay (P35222 2-781 limits assumed): as the sequence (P35222 2-781 limits assumed) above
With B2, the IC50 worked out at 5 nM.
Regarding B3, the IC50 turned out to be 12 nM.
Still for that read-out and setting: the same measure for B4: 25 nM; for B5: 9 nM; for B6: 7 nM.
Same read-out and setting: the same measure for B7: 19 nM; for B8: 34 nM; for B9: 9 nM.
On the same count and under the same terms, then B10, with 15 nM.

The next test has as its target beta-catenin (Homo sapiens (Human)) (UniProt P35222). Put plainly: fluorescence polarization competition; full-length beta-catenin with 5FAM-TCF4(10-53) probe as competitor.
In the case of B17, the 50% effective concentration (EC50) was 71 nM.
B18: the EC50 is 27 nM.
Still for that read-out and setting: the same measure for B19: 83 nM.

A further test has as its target full-length beta-Catenin (Uniprot ID P35222) (Homo sapiens (Human)) (UniProt P35222). Put plainly: fluorescence polarization competition; full-length beta-catenin + 5FAM-TCF4(10-53) probe; peptide titrated.
Target sequence in this assay (P35222 2-781 limits assumed): as above
For B2, the EC50 stood at 5 nM.
Still for that read-out and setting: then B3, with 12 nM; and B4, with 25 nM; and B5, with 9 nM.
The same measure, in the same setting: then B6, with 7 nM; and B8, with 34 nM; and B9, with 9 nM.
In the case of B10, the EC50 worked out at 15 nM.

The next test has the same target. Put plainly: fluorescence polarization competition; 10 nM full-length beta-catenin + 10 nM 5FAM-TCF4(10-53) as competitor probe; peptide titrated.
Target sequence in this assay (P35222 2-781 limits assumed): as above
Turning to B20, the IC50 came out at 402 nM.
Same read-out and setting: the same measure for B21: 867 nM; for B22: 469 nM.
B23: the IC50 was 363 nM.
On to B24, for which the IC50 amounted to 235 nM.
As for B25, the IC50 came to 135 nM.
The same measure, in the same setting: then B26, with 62 nM; and B27, with 4390 nM; and B28, with 187 nM.
On the same count and under the same terms, the same measure for B29: 551 nM.

In general, IC50 refers to the concentration that inhibits the measured activity by half. The term EC50 denotes the concentration at which the effect is half-maximal.
